Data published in the supplement of paper PMC10567573.
± gives the standard deviation.

Experiment: protein stability index of a GFP-peptide fusion (GPS, HEK-293T) (PSI 1-6); higher = more stable
[1] = treatment: DMSO, c terminus: a fixed tail appended
[2] = treatment: MLN4924 1 uM, 8 h, c terminus: a fixed tail appended
[3] = treatment: DMSO, c terminus: native
[4] = treatment: MLN4924 1 uM, 8 h, c terminus: native
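Further: 24-mer peptide tiles fused after GFP, lentivirally expressed, FACS-sorted into six equal bins by GFP/DsRed ratio, decoded by Illumina sequencing, PSI is the read-weighted mean bin number.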

Sequence	protein stability index [1]	protein stability index [2]	protein stability index [3]	protein stability index [4]
FATASAAVPVSTSKPSSDLLDLQP [SNAP91]	4.01 ± 0.28	4.1 ± 0.41		
RSVSLSMRKSGAMKKGGIFSAEFL [BNIP3L]	2.8 ± 0.3	2.95 ± 0.34		
ADTTTGSAAGPPLSEDDKLQGAAS [EHMT1]	5.46 ± 0.23	5.51 ± 0.18		
TSPSSNNSSEELSSALHLSKGMSI [NECAB1]	4.26 ± 0.19	4.24 ± 0.16		
TSSLRLNWEAPPGAFDSFLLRFGV [TNXB]	2.06 ± 0.27	2.21 ± 0.56		
ESKMYATSPYSDPVVSMDLDPQPI [PTPRD]	4.18 ± 0.53	4.42 ± 0.047		
NMEELTEVITAAEFHPHHCNTFVY [PPP2R2B]	2.38 ± 0.25	2.59 ± 0.33		
SQYIAVEAAEGRNKNEVFYQCPDQ [FBXO3]	4.46 ± 0.061	4.74 ± 0.094		
KRGSIPTSLTALSLASASPPLSGR [PPFIA4]	3.99 ± 0.2	4.17 ± 0.28		
WSVTGKAEPAMPGRLYVHPDSPAT [TBX5]	3.67 ± 0.17	3.62 ± 0.22		
LVSDDPRCRLSLDDRVLSSLVRDT [POP5]	3.44 ± 0.24	3.68 ± 0.12		
HSAAYRADPLRVSSRDKLTEMAAS [FUNDC2]	3.92 ± 0.3	4.23 ± 0.22		
MEKMLAGCFLLILGQIVLLPAEAR [MATN2]	3.46 ± 0.56	3.01 ± 0.3		
AEVQAKLENAEVLELTVRRVQGVL [HES6]	2.71 ± 0.38	2.58 ± 0.25		
RAPQLHLEYRFYEQLGSGDGIPQV [CSNK1G3]	3.36 ± 0.21	3.34 ± 0.1		
PSLQAWNDAPCDKTFLFICKRPYV [CD207]	2.17 ± 0.28	2.2 ± 0.21		
PGSNLNLLTNNSGTPKDHDSPENG [ETS2]	5.33 ± 0.22	5.31 ± 0.26		
NRRGGPPFAFVEFEDPRDAEDAVY [SRSF1]	3.91 ± 0.21	4.21 ± 0.26		
EFDDGSGSVLRIQPLRTPRDEAIY [PTPRD]	3.47 ± 0.11	3.88 ± 0.54		
FLLQNDANPSIRDKEGYNSIHYAA [ANKRD44]	2.75 ± 0.25	2.85 ± 0.32		
HITARIESDLTLESLSDEEIHPG [DRICH1]			4.47 ± 0.23	4.38 ± 0.37
FEEPEDPSNRSFFSEIISSISDVK [PPP2R2B]	4.09 ± 0.18	4.32 ± 0.15		
ELLKEAELIRNIQELLKRTIMQAV [TEKT4]	2.4 ± 0.2	2.27 ± 0.31		

Sequence	protein stability index [1]	protein stability index [2]	protein stability index [3]	protein stability index [4]
LVNPLDPRNADKIRVKIADLGNAC [SRPK2]	2.92 ± 0.18	2.97 ± 0.22		
QRELHSHVTNAMVLVNVLQAIYVI [DHCR7]	2.61 ± 0.59	2.78 ± 0.61		
GRTENGALAPKQELPSALESHEVP [ZNF24]	5.24 ± 0.1	5.27 ± 0.086		
RMAIGYLHSHRHLYPEGIGARQQQ [POMT2]	2.9 ± 0.22	3.08 ± 0.21		
RRVKLQLWDTSGQGRFCTIFRSYS [RAB40B]	2.21 ± 0.57	2.08 ± 0.32		
KSELSDGIAILVGSNDRVQGVISQ [TRIM55]	3.46 ± 0.31	3.52 ± 0.34		
VKPENFLIGRPGNKTQQVIHIIDF [CSNK1G3]	2.4 ± 0.72	2.5 ± 0.34		
ENGSVSSSETPPPPPPPNEINPPP [EIF5]	5.32 ± 0.18	5.35 ± 0.17		
QQQVKTNGAGVTVLRREISELRTK [FBXO28]	4.32 ± 0.19	4.44 ± 0.32		
RIHVRRHITHDERPHGQQIVFKD [KCTD13]			4.31 ± 0.24	4.33 ± 0.32
GLDVLLAQEVRPRRWKLQVLDLRK [PRAME]	2.31 ± 0.46	2.33 ± 0.48		
ISPSTLKNSLFPSPISSISPGLHS [KCNK9]	2.71 ± 0.56	2.76 ± 0.56		
IMDANQTYLVSERLEREERNQTQV [FAF2]	4.16 ± 0.2	4.32 ± 0.1		
SGPEEPLLEEEEKQWGPLEREPVR [RTN2]	5.51 ± 0.21	5.47 ± 0.34		
NGRHKIPESQFPEFSTSLFSGSLE [SRPK2]	3.66 ± 0.22	3.8 ± 0.19		
HLSGSHNTLAPTCFKAKLHRKRGS [RSPH3]	3.67 ± 0.14	3.77 ± 0.37		
GSNYANFELDLGKKVLNLLKGAFP [PTPN9]	2.29 ± 0.42	2.12 ± 0.35		
EEVSEVESFILDQDDLENPMLETA [ANKRD17]	5.69 ± 0.23	5.16 ± 0.57		
SLEQANRSLQLRIQELELQAQIHG [TFE3]	3.51 ± 0.33	3.52 ± 0.19		
CLGALCENTCLLRGFSGGILAFLV [TSPAN10]	2.34 ± 0.57	2.55 ± 0.33		
QPPNAEEESGSSSASEEEDTKPKP [INTS3]	5.72 ± 0.23	5.65 ± 0.21		
ETVVSYLPLSHIAAQMMDIWVPIK [ACSBG2]	2.14 ± 0.36	2.04 ± 0.14		
REQSRLTSCLKKREEMKLKECVSI [TNFSF13B]	3.62 ± 0.11	3.81 ± 0.24		

Sequence	protein stability index [1]	protein stability index [2]	protein stability index [3]	protein stability index [4]
DTLISQESCEKNDPLSLLDDSKFP [PCDHGA10]	5.05 ± 0.18	4.93 ± 0.2		
AMLREKFPEFCSSPSPPVEVKIEE [INTS3]	4.51 ± 0.3	4.65 ± 0.12		
IPIFNETGRFSFTLPYPVKIKVRF [HACD3]	2.92 ± 1.2	2.77 ± 0.44		
YMSINTHLGKEQSRRDDLEALGHM [CSNK1G1]	3.28 ± 0.19	3.74 ± 0.29		
LFNLSNFLDKSGSHGYDMSTFIRR [SNAP91]	2.62 ± 0.62	2.25 ± 0.35		
PWGFRLQGGKDFNVPLSISRLTPG [PDLIM7]	2.66 ± 0.18	2.66 ± 0.29		
SKLVESGIQFMDEPEMAVFLQNAK [TRIM55]	3.71 ± 0.34	4.01 ± 0.21		
EHKSLTGTARYMSINTHLGKEQSR [CSNK1G3]	4.02 ± 0.095	3.82 ± 0.38		
IVGNQVQGAPASSFVYVNPEDGRI [PCDHGC5]	3.46 ± 0.073	3.48 ± 0.21		
NSASDPSLKDGLSDSDSELSSSEG [PSD2]	5.69 ± 0.14	5.61 ± 0.19		
GLLSKTAGFSPDCIMDDAINILQN [INTS4]	2.91 ± 0.33	2.89 ± 0.17		
ALVKEREKQLAKKEQSKELQMKLE [FAM50A]	4.87 ± 0.076	4.64 ± 0.37		
NLIKSENYGKILVEKNEHCIENNI [R3HDM1]	3.5 ± 0.5	3.49 ± 0.65		
FREVYVGKETMCTVDGLHFNSTYN [TRIM9]	2.23 ± 0.098	2.4 ± 0.28		
FKISGMNGIHVCMVFEVLGHHLLK [SRPK2]	3.01 ± 0.34	2.92 ± 0.31		
AIVGGMALGVAGLAGLIGLAVSKS [FIS1]	3.38 ± 0.82	3.12 ± 0.51		
HYKKAPIFTSEHGEKLYLVRALQ [NCK2]			2.42 ± 0.61	2.2 ± 0.34
SIARLEMGPDEYEEMEEEEEEEEE [FBXO3]	5.41 ± 0.26	5.62 ± 0.28		
DDHECCERVVINISGLRFETQLKT [KCNA1]	2.79 ± 0.3	2.61 ± 0.25		
GSRLCLYEDGTELTEDYFPSVPDN [DFFB]	4.44 ± 0.44	4.66 ± 0.45		
HLRTHTGERPYKCSECGESFSRSS [ZNF263]	3.16 ± 0.19	3.38 ± 0.55		
VTTRQVRTIVEEVQDGKVISSREQ [KRT17]	4.87 ± 0.3	4.87 ± 0.36		
PEARSRDATPPVSPINMEDQERIK [JUNB]	5.37 ± 0.38	5.42 ± 0.33		

Sequence	protein stability index [1]	protein stability index [2]	protein stability index [3]	protein stability index [4]
TFLVFSKAELGALPHDFIDSLEKT [NLN]	2.13 ± 0.26	2.5 ± 0.25		
FLRSIDQFANLVLHQTVERIHVGK [LSM1]	2.95 ± 0.55	2.46 ± 0.39		
FPHSGKDCLLCFPETLPESSLFSV [C8orf76]	2.21 ± 0.52	2.36 ± 0.32		
LPKVLQKYWCVTATRVAPERLFGS [ZBED1]	2.47 ± 0.65	2.2 ± 0.21		
DGISIPELREACDYLCISFEYSTI [BTBD10]	3.18 ± 0.93	2.87 ± 0.56		
LLTLRNSAQAPPDSISLHQPCNPP [DMRTC1]	3.62 ± 0.14	3.82 ± 0.15		
SLLAGTADGSLRMDDPKGDFITLY [M1AP]	2.51 ± 0.22	2.44 ± 0.52		
KAVFGKHGPISEVLLIKDRTSKSR [RBMY1A1]	3.04 ± 0.28	3.34 ± 0.22		
SVICRSLPEGMGPGESGQPPPAC [ALKBH7]			2.87 ± 0.71	3.5 ± 0.69
GCASFIYLRPQSNYSSSQDALISV [OR10K2]	2.65 ± 0.81	2.54 ± 0.61		
EHVSRALCIHTGRELRCKVFPIKH [TRIB1]	2.21 ± 0.13	2.61 ± 0.3		
QPGPSGAPAQRATRGFLRSPSSDL [RETREG3]	3.97 ± 0.24	4.27 ± 0.23		
WMPPPSRADSFKVSYQLADGGEPQ [TNXB]	4.03 ± 0.44	4.23 ± 0.64		
QRVKLKLWDTSGQGRFCTIFRSYS [RAB40A]	2.3 ± 0.29	2.14 ± 0.33		
PEEELDFFEILRLFFPVIYDVKYL [CNOT7]	2.35 ± 0.51	2.47 ± 0.61		
GHKRKQPLPKRVAKVPRPPSTLLP [FOXJ1]	4.02 ± 0.49	3.86 ± 0.041		
LRSPNNFLSYYRLTRFLSRVIKCD [CCND1]	2.24 ± 0.42	2.44 ± 0.2		
ALLESSLRQAQQNMDPKAAEEEEE [CCND1]	5.28 ± 0.29	5.42 ± 0.25		
LDVEAAHSEILKYFQSVTSNRWLM [STX5]	2.06 ± 0.29	1.95 ± 0.055		
PGPPAAPRARRRLGSGPDRELRKP [PWWP2B]	5.03 ± 0.56	5.12 ± 0.35		
